{"source": "paper PMC2799296", "about": "(Biochemistry, 2009)", "proteins": {"B1": {"name": "bacteriophage Qβ coat protein, wild-type (133 amino acids, lacking the A1 extension) (natural protein)", "chain": "MAKLETVTLGNIGKDGKQTLVLNPRGVNPTNGVASLSQAGAVPALEKRVTVSVSQPSRNRKNYKVQVKIQNPTACTANGSCDPSVTRQAYADVTFSFTQYSTDEERAFVRTELAALLASPLLIDAIDQLNPAY"}}, "target": "the molecule itself", "experiment": "cryo-EM structure", "data": [{"protein": "B1", "values": [{"measurement": "binding result", "result": "binds"}]}]}
